Experiment [1] deals with T1, murine IL-11 (mouse, UniProt P47873 22-199).
T1 construct: Invigate recombinant protein; biotinylated when immobilized in the Di-complex ELISA; also called mIL11; mIL-11
T1 sequence: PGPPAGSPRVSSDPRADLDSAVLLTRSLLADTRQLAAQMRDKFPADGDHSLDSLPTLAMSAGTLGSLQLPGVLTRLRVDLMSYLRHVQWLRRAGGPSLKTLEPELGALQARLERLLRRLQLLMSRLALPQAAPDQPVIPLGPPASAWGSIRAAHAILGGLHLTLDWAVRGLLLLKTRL
Nature of the experiment: SPR (Biacore), 25 C, antibody captured via anti-Fc, IL-11 as analyte, determined in steady state.

Experiment [2] has as its target T2, murine IL-11 (mouse, UniProt P47873 22-199).
T2 construct: Invigate, e.g. lot #C210819-09; biotinylated where coated in the ELISA; also called mIL-11; mIL11
T2 sequence: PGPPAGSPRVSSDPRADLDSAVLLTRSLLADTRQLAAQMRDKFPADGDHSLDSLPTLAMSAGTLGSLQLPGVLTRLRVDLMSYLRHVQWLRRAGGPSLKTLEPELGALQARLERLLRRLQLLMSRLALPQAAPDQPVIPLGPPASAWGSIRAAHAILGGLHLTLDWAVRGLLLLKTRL
Nature of the experiment: Di-complex ELISA, competitor canine IL11RA-Fc on coated IL-11.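 On Efficacy (%): signal drop relative to signal at lowest antibody concentration.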

The target in experiment [3] is T3, human IL-11 (human, UniProt P20809 22-199).
T3 construct: Invigate, e.g. lot #C121021-19; biotinylated where coated in the ELISA; also called hIL-11; hIL11
T3 sequence: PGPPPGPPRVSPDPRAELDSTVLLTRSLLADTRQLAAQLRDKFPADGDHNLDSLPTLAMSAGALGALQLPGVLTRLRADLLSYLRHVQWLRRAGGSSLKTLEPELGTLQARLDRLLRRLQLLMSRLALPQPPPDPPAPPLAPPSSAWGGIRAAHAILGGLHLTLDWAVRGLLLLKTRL
The experiment can be described thus: Di-complex ELISA, competitor canine IL11RA-Fc on coated IL-11;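 on Efficacy (%): signal drop relative to signal at lowest antibody concentration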; Di-complex ELISA (blocking of IL-11/IL-11Ra), weak partial inhibition, efficacy 17.4%. How it is done:
The assay is performed using streptavidin coated microtiter plates (Greiner bio-one, #781997). In a first step, 10 nM biotinylated mouse IL-11 (Invigate, Germany, e.g., lot #C210819-09) or human IL-11 (Invigate, Germany, e.g., lot #C121021-19) is coated in 25 μl PBS on the plate at 4° C. overnight. Next day, the plate is washed three times with 50 μl PBST and then blocked with 50 μl SmartBlock (Candor, #113125) for one hour at room temperature (RT). After additional three washes with PBST, 25 μl of a mixture of the murine anti IL-11 antibody and recombinant canine IL11RA-Fc fusion protein (Sino Biological, #70078-D02H) in PBS-T, 10% Smartblock are added simultaneously to the plate and incubated for one hour at RT. […] After three additional washes with PBS-T, 25 μl anti-human-POD (Sigma, #A0170) in PBS-T, 10% Smartblock is added and incubated for 1 hour at RT. After a final three washes with PBS-T, 25 μl AmplexRed (Fisher Scientific, A12222), 1/1000 in PBS, 0,003% H₂O₂, is added as substrate and incubated for 15 min at RT in the dark. Then, the fluorescence is measured with a plate reader at 535/595 nm. […] Efficacy was calculated as [(signal measured at lowest antibody concentration−signal measured at the highest antibody concentration)×100] divided by (signal measured at lowest antibody concentration−signal measured in the absence of IL11Ra). […]
(An ELISA detects its analyte on a solid surface through an enzyme-linked reagent.)

From patent publication US20240317847A1 (Bayer, published 2024) come the findings set out here.

In general, Kd refers to the free concentration of one partner at which half of the binding sites on the other are occupied at equilibrium, for simple one-to-one binding. Read a low Kd as tighter binding. By IC50 is commonly meant the concentration at which inhibition is half-maximal.

B1: TPP-18087 (antibody, mouse IgG1, V domains shown)
VH: EVQLLESGGGLVQPGGSLRLSCAASGFTFSHYDMNWLRQAPGKGLEWVGVISYDGSNKFYADFVKGRFTISRDNSKNTLYLQMNSLRAEDTAVYYCARTPGSHFDYWGQGTLVTVSS
VL: QSVLTQPPSASGTPGQRVTISCSGSSSNIGNNAVNWYQQLPGTAPKLLIYYDDLLPSGVPDRFSGSKSGTSASLAISGLRSEDEADYYCSAWDDSLNGVVFGGGTKLTVLG
notes: mIgG1, Lambda
In experiment [1], B1 returned a Kd of 33 nM.

B2: TPP-18068 (antibody, mouse IgG1)
heavy: EVQLLESGGGLVQPGGSLRLSCAASGFTFSSYGMHWVRQAPGKGLEWVSVISYDGSYKYYADSVKGRFTISRDNSKNTLYLQMNSLRAEDTAVYYCAAGVPDYWGQGTLVTVSSAKTTPPSVYPLAPGSAAQTNSMVTLGCLVKGYFPEPVTVTWNSGSLSSGVHTFPAVLQSDLYTLSSSVTVPSSTWPSETVTCNVAHPASSTKVDKKIVPRDCGCKPCICTVPEVSSVFIFPPKPKDVLTITLTPKVTCVVVDISKDDPEVQFSWFVDDVEVHTAQTQPREEQFNSTFRSVSELPIMHQDWLNGKEFKCRVNSAAFPAPIEKTISKTKGRPKAPQVYTIPPPKEQMAKDKVSLTCMITDFFPEDITVEWQWNGQPAENYKNTQPIMDTDGSYFVYSKLNVQKSNWEAGNTFTCSVLHEGLHNHHTEKSLSHSPGK
light: QSVLTQPPSASGTPGQRVTISCTGSSSNIGAGYDVHWYQQLPGTAPKLLIYSNNERPSGVPDRFSGSKSGTSASLAISGLRSEDEADYYCAAWDDSLNGPVFGGGTKLTVLGQPKSSPSVTLFPPSSEELETNKATLVCTITDFYPGVVTVDWKVDGTPVTQGMETTQPSKQSNNKYMASSYLTLTARAWERHSSYSCQVTHEGHTVEKSLSRADCS
notes: mIgG1, Lambda
Regarding B2, in experiment [2], the “Efficacy (%)” value came to 64.2% and the IC50 stood at 2.9 nM. The molecule also showed an IC50 in experiment [3] of 12 nM.
